Laboratory results as given in patent publication US20180265582A1.

Molecular target: human PD-1 (programmed cell death 1) (human) (UniProt Q15116)
Experiment: column Affinity (nM); by the footnote of Tables 3 and 11: FACS staining of endogenous cell surface PD-1 on activated CD4 T cells [row BMS-5C4]

Chain of UniProt Q15116 (Q15116 25-288 limits assumed): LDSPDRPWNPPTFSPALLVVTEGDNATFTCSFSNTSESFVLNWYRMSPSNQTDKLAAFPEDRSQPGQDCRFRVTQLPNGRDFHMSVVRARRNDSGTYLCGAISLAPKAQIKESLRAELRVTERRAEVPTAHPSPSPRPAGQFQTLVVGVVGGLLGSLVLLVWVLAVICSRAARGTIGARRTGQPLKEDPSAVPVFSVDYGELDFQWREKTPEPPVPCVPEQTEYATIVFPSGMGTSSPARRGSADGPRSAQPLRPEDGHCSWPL

Question: With BMS-5C4 (antibody) as the substance, how does the Affinity read?
Answer: The Affinity was 0.6 nM.
